Experimental data taken from publication PMC6602974 (2019).

B1: DH727.2 monoclonal antibody (IgG1) (antibody, V domains shown)
VH: QVQLVQSGAEVKKPGASVKLSCKASGNTFSIYGISWVRQAPGQGLEWMGGIIPPAGLTNYVQRFQGRVTITADTSTTTVYMELSSLTSEDTAVYYCAIRIGRGFDYWGQGVLVTVSS
VL: DIVMTQSPLSLPVTPGETASISCRSSQSLLDSEDGNTYLEWYLQKPGQSPQALIYEASNRASGVPDRFSGSGSDTDFTLKISRVEAEDVGIYYCMQTIEYPFTFGPGTKVDIK
B2: CH505 transmitted founder gp120 (domain or fragment)
chain: not shown
B3: DH753 monoclonal antibody (IgG1) (antibody, V domains shown)
VH: EVHLVESGGGLVQPGGSLRLSCEVSGLTFSNSWMSWVRQAPGKGLEWVGFIKTKADGGTAAYAESVKGRFTISRDDSKNTVFLQMKSLKTEDTAVYYCQGAVVISHEYIEIWGQGALVTVSS
VL: QSVLTQPPSASEAARKSVTISCSGGSSNIGDDSVSWYQQVPGTAPKLLIYYNDRRASGVSDRFSGSKSGTSASLAINGLQSEDEADYYCAAWDDSLSAYIFGSGTRLTVL

What was measured:
[1] = target: B2; assay: SPR
[2] = target: DH796.1; assay: SPR

Binder | Kd [1] [nM] | Kd [2] [nM]
B1 | 10.9 | –
B2 | – | 253
B3 | 1.2 | –
